Measured values as given in article PMC2120307.
pIC50: −log10 of the molar value.

Tests used:
[1] = molecular target: recombinant purified neutrophil adhesion inhibitor NIF (rNIF) of the hookworm Ancylostoma caninum (Ancylostoma caninum); experiment: flow cytometry on cells
[2] = molecular target: recombinant purified neutrophil adhesion inhibitor NIF (rNIF) of the hookworm Ancylostoma caninum (Ancylostoma caninum); experiment: ELISA

pIC50 [1]: 9.00
pIC50 [2]: 9.00
Substance: recombinant CD11b A-domain (r11bA), wild type (domain or fragment)
